This assay concerns the target GST-Skp1 (Homo sapiens (Human), UniProt P63208). The assay can be described thus: GST pull-down, Western blot.

Sequence of GST-Skp1 (P63208 whole entry): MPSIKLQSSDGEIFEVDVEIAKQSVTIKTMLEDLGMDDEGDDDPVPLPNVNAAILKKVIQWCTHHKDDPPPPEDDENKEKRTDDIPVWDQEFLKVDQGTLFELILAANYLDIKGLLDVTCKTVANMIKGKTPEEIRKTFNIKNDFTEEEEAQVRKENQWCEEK

B1: Recombinant human MAGE-C2 protein (protein)
chain: MPPVPGVPFRNVDNDSPTSVELEDWVDAQHPTDEEEEEASSASSTLYLVFSPSSFSTSSSLILGGPEEEEVPSGVIPNLTESIPSSPPQGPPQGPSQSPLSSCCSSFSWSSFSEESSSQKGEDTGTCQGLPDSESSFTYTLDEKVAELVEFLLLKYEAEEPVTEAEMLMIVIKYKDYFPVILKRAREFMELLFGLALIEVGPDHFCVFANTVGLTDEGSDDEGMPENSLLIIILSVIFIKGNCASEEVIWEVLNAVGVYAGREHFVYGEPRELLTKVWVQGHYLEYREVPHSSPPYYEFLWGPRAHSESIKKKVLEFLAKLNNTVPSSFPSWYKDALKDVEERVQATIDTADDATVMASESLSVMSSNVSFSE
In the case of B1, the binding result is listed as “no binding”.

The values above are taken from publication PMC4747207 (2015).
